Laboratory results as given in the supplement of paper PMC10598134.
± gives the standard deviation.

Assay: collision cross section of modified peptide (TIMS, N2, iRT-aligned); higher = larger / more extended gas-phase ion
Summary of the method: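 On a timsTOF Pro/HT (dda-PASEF, nitrogen, ~2.4 mbar), synthetic peptide pools were analysed after a 120-min nanoflow C18 separation at 60 °C and identified in MaxQuant. Three reference ions served for 1/K0 calibration, with run-wise alignment to the median iRT peptide deviation. Collision cross section comes from the Mason-Schamp equation, using the most abundant feature per charge state averaged over 1–3 technical replicates.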

[1] = charge state: 2, modification: Malonyl
[2] = charge state: 2, modification: Hydroxyproline
[3] = charge state: 3, modification: Hydroxyproline
[4] = charge state: 3, modification: Methyl (R)
[5] = charge state: 2, modification: Crotonyl
[6] = charge state: 3, modification: Crotonyl
[7] = charge state: 2, modification: Citrullination (R)
[8] = charge state: 2, modification: Glutarylation
[9] = charge state: 3, modification: Trimethyl (K)
[10] = charge state: 2, modification: Trimethyl (K)
[11] = charge state: 2, modification: Formyl
[12] = charge state: 2, modification: hydroxyisobutyryl
[13] = charge state: 2, modification: Butyryl
[14] = charge state: 2, modification: Methyl (K)
[15] = charge state: 3, modification: Methyl (K)

VFSIISSEKELK [_VFSIISSEK(Malonyl)ELK_]
collision cross section [1]: 409.68 ± 0.66 Å²

DYQPGITFIVVQKR [_DYQP(Hydroxyproline)GITFIVVQKR_]
collision cross section [2]: 449.25 ± 1.9 Å²
collision cross section [3]: 517.44 ± 1.2 Å²

FGSRGGPGGGFR [_FGSR(Methyl (R))GGPGGGFR_]
collision cross section [4]: 435.83 ± 3.2 Å²

VPTTEKPTVTVNFR [_VPTTEK(Malonyl)PTVTVNFR_]
collision cross section [1]: 427.18 ± 3.1 Å²
collision cross section (charge state: 3, modification: Malonyl): 511.14 ± 0.89 Å²

ITESVAETAQTIKK [_ITESVAETAQTIK(Crotonyl)K_]
collision cross section [5]: 424.18 ± 0.81 Å²
collision cross section [6]: 514.18 ± 1.1 Å²

LQEKVESAQSEQK [_LQEK(Acetyl (K))VESAQSEQK_]
collision cross section (charge state: 2, modification: Acetyl (K)): 412.85 ± 1.8 Å²
collision cross section (charge state: 3, modification: Acetyl (K)): 502.13 ± 0.084 Å²

VEPGSLESSPGLGRGR [_VEPGSLESSPGLGR(Citrullination (R))GR_]
collision cross section [7]: 418.2 ± 0.21 Å²
collision cross section (charge state: 3, modification: Citrullination (R)): 495.92 ± 3.1 Å²

DKALPLEAEVAPVK [_DK(Gluratylation)ALPLEAEVAPVK_]
collision cross section [8]: 424.54 ± 0.97 Å²

SGRGGNFGFGDSR [_SGR(Methyl (R))GGNFGFGDSR_]
collision cross section [4]: 452.71 ± 3.1 Å²

YEQEHAAIQDKLFQVAK [_YEQEHAAIQDK(Trimethyl (K))LFQVAK_]
collision cross section [9]: 561.55 ± 0.91 Å²

VGEFSGANKEK [_VGEFSGANK(Trimethyl (K))EK_]
collision cross section [10]: 384.48 ± 1.7 Å²
collision cross section [9]: 437.18 ± 7.5 Å²

SLEEEGAAHSGKR [_SLEEEGAAHSGK(Propionyl)R_]
collision cross section (charge state: 2, modification: Propionyl): 416.58 ± 0.64 Å²
collision cross section (charge state: 3, modification: Propionyl): 480.52 ± 0.66 Å²

DAEAAEATAEGALKAEK [_DAEAAEATAEGALK(Crotonyl)AEK_]
collision cross section [5]: 474.87 ± 0.81 Å²
collision cross section [6]: 545.42 ± 1.3 Å²

GFPGAPGLPGLKGHR [_GFP(Hydroxyproline)GAPGLPGLKGHR_]
collision cross section [3]: 478.5 ± 1.8 Å²

SSFAYKDQNENR [_SSFAYK(Formyl)DQNENR_]
collision cross section [11]: 394.76 ± 0.75 Å²

PASGAGAGAGAGKR [_PASGAGAGAGAGK(hydroxyisobutyryl)R_]
collision cross section [12]: 363.2 ± 0.9 Å²
collision cross section (charge state: 3, modification: hydroxyisobutyryl): 470.09 ± 2.8 Å²

VEPGSLESSPGLGRGR [_VEPGSLESSPGLGR(Methyl (R))GR_]
collision cross section [4]: 499.14 ± 2.2 Å²

ASAISIKLGSSK [_ASAISIK(hydroxyisobutyryl)LGSSK_]
collision cross section [12]: 374.73 ± 0.8 Å²

KYEEIDNAPEER [_K(Dimethyl (K))YEEIDNAPEER_]
collision cross section (charge state: 2, modification: Dimethyl (K)): 402.53 ± 1.1 Å²
collision cross section (charge state: 3, modification: Dimethyl (K)): 484.37 ± 1.6 Å²

AGPNASIISLKSDK [_AGPNASIISLK(Malonyl)SDK_]
collision cross section [1]: 411.98 ± 0.71 Å²

ILDLKTGTVK [_ILDLK(Malonyl)TGTVK_]
collision cross section [1]: 359.66 ± 0.75 Å²

DKALPLEAEVAPVK [_DK(Formyl)ALPLEAEVAPVK_]
collision cross section [11]: 412.02 ± 0.74 Å²

GKLGVPGLPGYPGR [_GKLGVP(Hydroxyproline)GLPGYPGR_]
collision cross section [2]: 384.86 ± 0.79 Å²
collision cross section [3]: 481 ± 2.9 Å²

ISALQGKLSK [_ISALQGK(Trimethyl (K))LSK_]
collision cross section [10]: 359.1 ± 0.6 Å²
collision cross section [9]: 419.39 ± 1.8 Å²

LQDVSGQLSSSKK [_LQDVSGQLSSSK(Butyryl)K_]
collision cross section [13]: 401.39 ± 0.74 Å²
collision cross section (charge state: 3, modification: Butyryl): 476.47 ± 3.2 Å²

SGRGGNFGFGDSR [_SGR(Citrullination (R))GGNFGFGDSR_]
collision cross section [7]: 379.38 ± 0.54 Å²

LDEKENLSAK [_LDEK(hydroxyisobutyryl)ENLSAK_]
collision cross section [12]: 373.33 ± 0.28 Å²

LTSLNVKYNNDK [_LTSLNVK(Gluratylation)YNNDK_]
collision cross section [8]: 413.21 ± 1.1 Å²

ITASLCDLKSR [_ITASLCDLK(Butyryl)SR_]
collision cross section [13]: 390.25 Å²

VTLEVGKVIQQGR [_VTLEVGK(Crotonyl)VIQQGR_]
collision cross section [5]: 412.55 ± 0.81 Å²
collision cross section [6]: 473.48 ± 1.6 Å²

DHLSDKESK [_DHLSDK(Trimethyl (K))ESK_]
collision cross section [10]: 350.64 ± 1.1 Å²
collision cross section [9]: 401.61 ± 0.025 Å²

IGNSYFKEEK [_IGNSYFK(Methyl (K))EEK_]
collision cross section [14]: 373.94 ± 0.87 Å²
collision cross section [15]: 450.33 ± 4.8 Å²

IVEKYGYTHLSAGELLR [_IVEK(Methyl (K))YGYTHLSAGELLR_]
collision cross section [15]: 548.39 ± 0.79 Å²

ITASLCDLKSR [_ITASLCDLK(Methyl (K))SR_]
collision cross section [14]: 398.61 Å²
collision cross section [15]: 456.95 ± 2.7 Å²
